The nanobody polyreactivity screen of Harvey et al. (2022)

Assay: yeast display, Sf9 membrane polyspecificity reagent, FACS + sequencing; frameworks hold sequencing errors
Method in brief: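 Genes from sorted yeast were amplified by colony PCR, read by MiSeq 2 × 250 sequencing and filtered on CDR length. These cells carried a synthetic nanobody library in Saccharomyces cerevisiae BJ5465 and were sorted by FACS into low and high (top ~1%) gates on anti-HA and streptavidin fluorescence. Polyreactivity is labelled according to the gate of origin.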

Row | Sequence | polyreactivity (PSR sort gate)
1 | QVQLVESGGGLVQAGGSLRLSCAASGFNLYPNAMGWYRQAPGKERELGAAITESDGITYYADSVKGRFTISRDNAKYTVYLQMNSLKPEDTAVYYCNTGFSYTYDYWGQGTQVTVSS | low polyreactivity
2 | QVQLVESGGGLVQAGGSLRLSCAASGSIFYDNAMGWYRQAPGKERELVASIRWSGDSTYYADSVKGRFTISRDNAKNTVYLQMNSLKPEDTAVYYCAADPVEPYFTAIAYDFWGQGTQVTVSS | low polyreactivity
3 | QVQLVESGGCLVQAGGSLRLSCAASGLIFYGYAMGWYRQAPGKERELVAAITSGGSTNYADSVKGRFTISRDNAKNTVYLQMNSLKPEDTSFYYCNADVIYYYRAYPVYEYDYWGQGTQVTVSS | low polyreactivity
4 | QLQLVESGGGLVQAGGSLRLSCAASGRTFWYYTMGWYRQAPGKERELVAAISSGGRTNYADSVKGRFTISLDNAKNTVYLQMNSLKPEDTAVYYCATSRYYKYVERDYWGQGTLVTVSS | high polyreactivity
5 | QVQLVESGGGLVQAGGSLRLSCAASGRTFGGYAMGSYRQAPGKERELVAAISRSGGRTYYADSVKGRFTISRDNAKNTVYLQMNSLKPEDSAVYYWADRLYVGPTAMDYWGEGTQVTVSS | high polyreactivity
6 | QVQLVESGGGLVQAGGSLRLSCAASGIILYPYAMGWYRQAPGKERELVAAISWSGGSTYYADSVKGRFTISRDKAKNTVYLQMNSLKPEDTAVYYCNARYYGPSWNSYDYWGQGTQVTVSS | high polyreactivity
7 | QVQLVESGAGLVQAGGSLRISCAASGRIFYVYAMGWYRQAPGKEREFVASISWSGGSTYYADSVKGRFTISRDNANNTVLLQMNSLKPADTAVYYCNARAFTQRYDYWGQGTQVTVSS | low polyreactivity
8 | QVQHVESRGGLVQAGGSLRLSCAASGRTFQANAMGCYRQAPGKERELVAAITGRGGTTYYADSVKGRFTISRDNAKNTVYLQMNSLKPEDTAVYYCARALSGYGFWGYEYWGQGTQVTVSS | low polyreactivity
9 | QVQLQESGGGLVQEGGSLRLSCAASGNISPPADMGWYRQAPGKERELVASIGTGGTTNYADSVKGRCTISRDNAKNTVYLQMNSLKPDDTAVYYCAAVRYEYNPYDYWGQGTQVTVSS | low polyreactivity
10 | QVQLVESGGGSVQAGGSLRLSCAASGRTFVFNAMGWYRQAPGKESELVAGISGSGGSTYYAESVKGRFTISRDNAKNNVYLQMNSLKPEDTAVYYCANTFPRKELDQESVSGLGYWGQGTQVTVSS | low polyreactivity
11 | QVQLQESGGGLVQAGGSLRLSCAASGSIFDGFNMGWYRQAPGKERECVAAISYGASTYYADSVKGRFTGSRDNAKNSVYLQMNSLKPEDTAVYYCAVYDELYHVLVYWGRGTQVTVSS | low polyreactivity
12 | QVQLVESGGGLVQAGGSLRLSCAASGSTFRYYAMGWYRQAPGKERELVAVISASGGTTYYADSVKGRFTISRDNAKNTVYLQMNSLKPEDTAVYYCAAREGWGFYYWGQGTQVTVSS | high polyreactivity
13 | QVQLVESGGGLVQAGGSLRLSCAASGRIFRGNAMGWYRQAPGKERELVAASTSSGDSTFYADSVKGRFTISRDNAKNTVYLQMNSLKPEDTAVYYCAANVRYQRTSGYYYWGQGTQVTVSS | high polyreactivity
14 | QVQLVESGGGLVQAGGSLRLSCAASGRIFYPNVMGWYRQAPGKERELVAAITWSSGSTYYADSVKGRFTISRDNAKNTVYLQMNSLKPEDTAVYYCAAGLRWHRKFYYWGQGTQVTVSS | high polyreactivity
15 | QVQLVESGGGLVQAGGSLRLSCAASGFIFVVYAMGWYRQAPGQERELVAAITYSGGSTYYADSVKGRFTISRDNAKNTVYLQMNSLKPEDTAVYYCAAPEHDREFDYWGQGTQVTVSS | low polyreactivity
16 | QVQLVESGGGLVQAGGSLRLSCAASGSTFVHYDMGWYRQAPGKERELVAGSTTGGSTNYADSVKGRFTISRDNAKNTVYLQMNSLKPEDTAVYYCNADSYPNLVPDYLYYWYEYWGQGTQVTVSS | low polyreactivity
17 | QVELVESGGGLVQAGGSLRLSCAASGYIFNYYAMGWYRQAPGKERELVAAISTSGGSTYYADSVKGRFTISRDNAKNTVYLQMNSLKPEDTAVYYCAAVDYKANGYGYWGQGTQVTVSS | high polyreactivity
18 | QVQLVESGGGLVQAGGSLRLSCAASGFTFYINAMGWYRQAPGKEREFVAAITSRGGSTYYADSVKGRFTISRDNAKNTVYLQMNSLKPEDTAVYYCAARNFLSRRGTYDYWGQGTQVTVSS | high polyreactivity
19 | QVQLVESGGGLVQAGGSLRLSCSASGFTFRYYTMGWYRQAPGKERELVAAISRSSGSRTYYADSVKGRFTISRDNAKNTVYLQMNSLKPEDTAVYYCNADPAYQFDYWGQGTQVTVSS | high polyreactivity
20 | QVQLVESGGGLVQAGGSLRLSCAASGFTFTYNAMGWYRQEPGKERELVAAITANGGGTNYADSVKGRFTISRDNAKNTVYLQMNSLKPEDTAVYYCAATIVVAVFESLGFYWYTEENYWGQGTLVTVSS | low polyreactivity
21 | QVQLVESGGGLVQAGGSLRLSCAASGSIFTINAMGWYRQAPGKERELVAAISFSGGRTYYADSVKGRFTISRDNAKITVYLQMNSLKPEDTAVYYCAAPFYYYGVRFDYWGQGTQVTVSS | high polyreactivity
22 | QVQLVESGGGLVQAGGSLRLICAASGFTFAGYAMGWYRQARGKDRELVAGIRSSGARTYYADSVKGRFTISRDNAKNTVYIQMNSLKPEDTAVYYCAKTDGFYRGYGYWGQGTQVTVSS | low polyreactivity

Row | Sequence | polyreactivity (PSR sort gate)
23 | QVQLVESGGGLVQAGGSLRLTCAASGSIFTTNAKGWYRPAPGTERELVASITWSGGSTYADSVKGRFTISRDNAKYTVYLQMNILKPEDTAVYYGATDPFYPVPPEYEYWGQGTQVTVSS | low polyreactivity
24 | QVQRVESGGGLVQAGGSLRLSCAACGSILPQYTMVWYRQAPGKERELVAAISKRGDRTYYADSVKGRFTISRDNAKNTVYLQMNSLKPEDTAVYYCAALGTGTGARSRYSVRFDYWGQGTQVTVSS | high polyreactivity
25 | QVQLVESGGGLVQAGGSLRLSCAASGSIFRGYAMGWYRQAPGKERELVAAITSSAGSTYYADSVKGRFTISRDNAKNTVYLQMNSLKPEDTAVYYCNKYPRASRRGFDYWGQGTQVTVSS | high polyreactivity
26 | QVQLVESGGGLVQAGGRLRLSCAASGRTFRWYAMGRYRQAPGKERELVADISSVGSTDYADSVKGRFTISRDNAKNTVYLQMNSLKPEDTAVYFCAADFSPRRYHNLSFGYWGQGTQVTVSS | low polyreactivity
27 | QVQRVESGGRLVQAGGSLRLSCAPSGFTFQDYAMGWSRQAPGKERELVAAISRNGGSTYYADSVKGRFTISRDNAKNTVYLQMNSLKPEDTAVYYCNADSHHRRGSRDYCGQGTQVTVSS | low polyreactivity
28 | QVQLVESGGCLVQAGCSLRLSCAASGRIFGYYVMGWYRQAPGKERELVAAIRSSADSTYYADSVKGRFTISRDNAKNTVYLQMNSLKPEDTAVYYCAAQSPAYYTKSYWGQGTQVTVSS | low polyreactivity
29 | QVQLVESGGGLVQAGGSLRLSCAASGRTFSEYAMGWYRQAPGKERELVAAITRSGGGTYYADSVKGRFTISRDNAKNTVYLQMNSLKPEDTAVYYCATQSFSPYDYTDEYWGQGTQVTVSS | high polyreactivity
30 | QVQLVESGGGLVQAGGSLRLSCAASGSIFSIYAMGWYRQAPGKERDFVASITVTDGSTYYADSVKGRFTISRDNAKNTVYLQMNSLKPEDTAVYYCYADGWYALYEWLAVSGYYWGQGTQVTVSS | low polyreactivity
31 | QVQLVDSGGGLVQAGGGLRLSCAASGRIFVKYGMGWYRQAPGKERELVAAISWTGGSTYYADSVKGRFTISRDNEKNTVYLQMNSLKPEDTAVYYCAKSFGIWHARWLTYDYWGQGTQVTVSS | low polyreactivity
32 | QVQLVESGGGLVQAGGSLRLSCAASGSTFPRNDMGWYRQAPGKERELVAAISRGGSTNYADSVKGRFTISRDNAKNTVYLQMNSLKPEDTAVYYCAAQIFECAYGMDYWGQGTQVTVSS | low polyreactivity
33 | QVQLVESGGGLVKAGGSLRLSCAASGSSLRYNAMGWYRQAPGKERELVAAISWGGGRTHYADSVKGRFTISRDNAKNSVYLQMNSLKPEDTAVYYCNGVSVRYLYYYWGQGTQVTVSS | high polyreactivity
34 | QVQLVESGGGLVQAGGSLRLSCAASGRIIYYNAMGWYRQAPGKERDLVARISSGGSTNYADSVKGRFTFSRDNAKNTVYLQMISLKPEDTAGDYCAVAKGGLAWGVGRAGRYDYWGQGTQVTLSS | low polyreactivity
35 | QVQLVESGGGLVQAGGSLRLSCAASGRIFGTNAMGWYRQAPGKERELVAAINGSDSSTYYADSVKGRFTISRDNAKNTVYLQMNSLKPEDTAVYYCAADWDFFQQGANGAPYDYWGQGTQVTVSS | low polyreactivity
36 | QVQLVESGGGLVQAGGSLRLSCAASGSTFKSYVMGWYRQAPGKERELVAAISSGDSTYYADSVKGRFTISRDNAKNTVYLQMNSLKPEDTAVYYCAADPGYTVEPWEDDDWGQGTQVTVSS | low polyreactivity
37 | QVQLVESGGGLVQAGGSLRLSCAASGIILAFNAMGWYRQAPGKEREFVASISQGGSSTYYADSVKGRFTISRDNAKNTVYLQMNSLKREDTAVYYCAARSSRVRSPYQRYYYWGQGTQVTVSS | high polyreactivity
38 | QVQLVESGGGLVQAGGSLRLSFAASGRIFPHNAMGWYRQAPGKERELVAAISSNGGSTYYADSVKGRFTISRDNAKNTVYLQMNSLKPEDTAVYYCAKYRYFAGDGDYWGQGTQVTVSS | low polyreactivity
39 | QVQLVESGGGLVQSGGILRLSCAASGSTSPIYAMGWYRQAPGTERELVAAINGVGSTNYADSVKGRFTISRDNAKTTVYFQMNSLKPADTAVYYCAADGTALHEYLGDYDYWGQGTQVTVSS | low polyreactivity
40 | QVHLVESGGGLVQAGGSLRLSFAASGRISRIYTMVWYRPAPGKERELVAAITSRGGSTYYADSLKGRFTISRDNAKNTVYFQMNSLNPEDTAVYYCAAGTFWWGYRSKGDEYDYWGQGTKVTVSS | high polyreactivity
41 | QVQLVESGGGLVQAGGSLRLSCAASGRTFNTYTMGWYRQAPGKERELVAAITGTGGSTFYADSVKGRFTISRDNAKNTVYLQMNSLKPEDTAVYYCNADLEGTIGVYTDGFDSDYWGQGTQVTVSS | low polyreactivity
42 | QVQLVESVGGLVQAGGSLRLSCAASGGTFQHYTMGWYRQAPGKERELVAAISLSGTRTYYADSVKGRFTISRDNAKNTVYLQMNSLKPEDTAVYYCAARYGVEYWGQGTQVTVSS | low polyreactivity
43 | QVQLVESGGGLVQAGGSLRLSCAASGRTVVNAMGWYRQAPGKERELVAAISSNGGRTYYADSVKGRFTISRDNAKNTVYLQINSLKPEDTAVYYCAAGYIWFRKIQFDYWGQGTQVTVSS | high polyreactivity
